Laboratory results reported in patent US20230416361A1 (MIROBIO, published 2023).

T1: monomeric soluble human CD200R extracellular domain (human, UniProt Q8TD46 29-265)
T1 construct: extracellular domain; also called hCD200R; monomeric CD200R protein
T1 sequence (looked up): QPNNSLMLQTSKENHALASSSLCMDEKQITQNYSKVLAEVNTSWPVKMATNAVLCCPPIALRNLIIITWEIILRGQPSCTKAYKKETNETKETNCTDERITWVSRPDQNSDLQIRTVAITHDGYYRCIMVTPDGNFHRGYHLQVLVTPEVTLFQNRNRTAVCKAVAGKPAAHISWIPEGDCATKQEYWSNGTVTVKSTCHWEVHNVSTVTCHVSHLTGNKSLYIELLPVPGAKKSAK

B1: hu2131_v8 (antibody, human IgG1, V domains shown)
VH: QVQLVQSGAEVKKPGASVKLSCKASGHTFTSYWMHWVKQAPGQGLEWIGNIYPGSGSINYDEKFQGRATLTVDTSTRTAYMELSSLRSEDTAVYYCLTMTGTSWGRGTLVTVSS
VL: DVQMTQSPSSLSVSVGDRVTITCQASQGTPINLHWFQQKPGKAPKLLISGASNLEDGVPSRFSGSRYGTDFTFTISSLQPEDIATYFCLQFTYIPWTFGQGTKLEIK
notes: Expressed as human IgG1 with P238D Fc mutation
B2: hu2131_v19 (antibody, human IgG1, V domains shown)
VH: QVQLVQSGAEVKKPGASVKVSCKASGHTFTSYWMHWVRQAPGQGLEWMGNIYPGSGSINYDEKFQGRVTMTADTSTSTVYMELSSLRSEDTAVYYCLTMTGTSWGRGTLVTVSS
VL: DIQMTQSPSSLSVSVGDRVTITCQASQGTPINLHWFQQKPGKAPKLLISGASNLEDGVPSRFSGSGSGTDFTFTISSLQPEDIATYYCLQFTYIPWTFGQGTKLEIK
notes: as for B1
B3: hu2131_v13 (antibody, human IgG1, V domains shown)
VH: QVQLVQSGAEVKKPGASVKVSCKASGHTFTSYWMHWVRQAPGQGLEWIGNIYPGSGSINYDEKFQGRVTMTVDTSTSTAYMELSSLRSEDTAVYYCLTMTGTSWGRGTLVTVSS
VL: DVQMTQSPSSLSVSVGDRVTITCQASQGTPINLHWFQQKPGKAPKLLISGASNLEDGVPSRFSGSRYGTDFTFTISSLQPEDIATYFCLQFTYIPWTFGQGTKLEIK
notes: as for B1
B4: hu2131_v17 (antibody, human IgG1, V domains shown)
VH: QVQLVQSGAEVKKPGASVKVSCKASGHTFTSYWMHWVRQAPGQGLEWMGNIYPGSGSINYDEKFQGRVTMTADTSTSTVYMELSSLRSEDTAVYYCLTMTGTSWGRGTLVTVSS
VL: DVQMTQSPSSLSVSVGDRVTMTCQASQGTPINLHWFQQKPGKAPKLLISGASNLEDGVPSRFSGSRYGTAFTLTISSLQPEDIATYFCLQFTYIPWTFGQGTKLEIK
notes: as for B1
B5: hu2131_v18 (antibody, human IgG1, V domains shown)
VH: QVQLVQSGAEVKKPGASVKVSCKASGHTFTSYWMHWVRQAPGQGLEWMGNIYPGSGSINYDEKFQGRVTMTADTSTSTVYMELSSLRSEDTAVYYCLTMTGTSWGRGTLVTVSS
VL: DVQMTQSPSSLSVSVGDRVTITCQASQGTPINLHWFQQKPGKAPKLLISGASNLEDGVPSRFSGSRYGTDFTFTISSLQPEDIATYFCLQFTYIPWTFGQGTKLEIK
notes: as for B1
B6: hu2131_v5 (antibody, human IgG1, V domains shown)
VH: QVQLVQSGSELKKPGASVKLSCKASGHTFTSYWMHWVKQAPGQGLEWIGNIYPGSGSINYDEKFQGRATLTVDTSTRTAYMELSSLRSEDSAVYYCLTMTGTSWGRGTLVTVSS
VL: DIQMTQSPSSLSVSVGDRVTITCQASQGTPINLHWFQQKPGKAPKLLISGASNLEDGVPSRFSGSGSGTEFTFTISSLQPEDAATYYCLQFTYIPWTFGQGTKLEIK
notes: as for B1
B7: hu2131_v9 (antibody, human IgG1, V domains shown)
VH: QVQLVQSGAEVKKPGASVKLSCKASGHTFTSYWMHWVKQAPGQGLEWIGNIYPGSGSINYDEKFQGRATLTVDTSTRTAYMELSSLRSEDTAVYYCLTMTGTSWGRGTLVTVSS
VL: DIQMTQSPSSLSVSVGDRVTITCQASQGTPINLHWFQQKPGKAPKLLISGASNLEDGVPSRFSGSGSGTDFTFTISSLQPEDIATYYCLQFTYIPWTFGQGTKLEIK
notes: as for B1
B8: hu2131_v14 (antibody, human IgG1, V domains shown)
VH: QVQLVQSGAEVKKPGASVKVSCKASGHTFTSYWMHWVRQAPGQGLEWIGNIYPGSGSINYDEKFQGRVTMTVDTSTSTAYMELSSLRSEDTAVYYCLTMTGTSWGRGTLVTVSS
VL: DIQMTQSPSSLSVSVGDRVTITCQASQGTPINLHWFQQKPGKAPKLLISGASNLEDGVPSRFSGSGSGTDFTFTISSLQPEDIATYYCLQFTYIPWTFGQGTKLEIK
notes: as for B1
B9: hu2131_v2 (antibody, human IgG1, V domains shown)
VH: QVQLVQSGSELKKPGASVKLSCKASGHTFTSYWMHWVKQAPGQGLEWIGNIYPGSGSINYDEKFQGRATLTVDTSTRTAYMELSSLRSEDSAVYYCLTMTGTSWGRGTLVTVSS
VL: DVQMTQSPSSLSVSVGDRVTMTCQASQGTPINLHWFQQKPGKAPKLLISGASNLEDGVPSRFSGSRYGTAFTLTISSLQPEDIATYFCLQFTYIPWTFGQGTKLEIK
notes: as for B1
B10: hu2131_v11 (antibody, human IgG1, V domains shown)
VH: QVQLVQSGAEVKKPGASVKVSCKASGHTFTSYWMHWVRQAPGQGLEWIGNIYPGSGSINYDEKFQGRVTMTVDTSTSTAYMELSSLRSEDTAVYYCLTMTGTSWGRGTLVTVSS
VL: DVQMTQSPSSLSVSVGDRVTMTCQASQGTPINLHWFQQKPGKAPKLLISGASNLEDGVPSRFSGSRYGTAFTLTISSLQDEDIATYFCLQFTYIPWTFGQGTKLEIK
notes: as for B1
B11: hu2131_v12 (antibody, human IgG1, V domains shown)
VH: QVQLVQSGAEVKKPGASVKVSCKASGHTFTSYWMHWVRQAPGQGLEWIGNIYPGSGSINYDEKFQGRVTMTVDTSTSTAYMELSSLRSEDTAVYYCLTMTGTSWGRGTLVTVSS
VL: DVQMTQSPSSLSVSVGDRVTMTCQASQGTPINLHWFQQKPGKAPKLLISGASNLEDGVPSRFSGSRYGTAFTLTISSLQPEDIATYFCLQFTYIPWTFGQGTKLEIK
notes: as for B1
B12: hu2131_v10 (antibody, human IgG1, V domains shown)
VH: QVQLVQSGAEVKKPGASVKLSCKASGHTFTSYWMHWVKQAPGQGLEWIGNIYPGSGSINYDEKFQGRATLTVDTSTRTAYMELSSLRSEDTAVYYCLTMTGTSWGRGTLVTVSS
VL: DIQMTQSPSSLSVSVGDRVTITCQASQGTPINLHWFQQKPGKAPKLLISGASNLEDGVPSRFSGSGSGTEFTFTISSLQPEDAATYYCLQFTYIPWTFGQGTKLEIK
notes: as for B1
B13: hu2131_v15 (antibody, human IgG1, V domains shown)
VH: QVQLVQSGAEVKKPGASVKVSCKASGHTFTSYWMHWVRQAPGQGLEWIGNIYPGSGSINYDEKFQGRVTMTVDTSTSTAYMELSSLRSEDTAVYYCLTMTGTSWGRGTLVTVSS
VL: DIQMTQSPSSLSVSVGDRVTITCQASQGTPINLHWFQQKPGKAPKLLISGASNLEDGVPSRFSGSGSGTEFTFTISSLQPEDAATYYCLQFTYIPWTFGQGTKLEIK
notes: as for B1
B14: hu2131_v6 (antibody, human IgG1, V domains shown)
VH: QVQLVQSGAEVKKPGASVKLSCKASGHTFTSYWMHWVKQAPGQGLEWIGNIYPGSGSINYDEKFQGRATLTVDTSTRTAYMELSSLRSEDTAVYYCLTMTGTSWGRGTLVTVSS
VL: DVQMTQSPSSLSVSVGDRVTMTCQASQGTPINLHWFQQKPGKAPKLLISGASNLEDGVPSRFSGSRYGTAFTLTISSLQDEDIATYFCLQFTYIPWTFGQGTKLEIK
notes: as for B1
B15: hu2131_v1 (antibody, human IgG1, V domains shown)
VH: QVQLVQSGSELKKPGASVKLSCKASGHTFTSYWMHWVKQAPGQGLEWIGNIYPGSGSINYDEKFQGRATLTVDTSTRTAYMELSSLRSEDSAVYYCLTMTGTSWGRGTLVTVSS
VL: DVQMTQSPSSLSVSVGDRVTMTCQASQGTPINLHWFQQKPGKAPKLLISGASNLEDGVPSRFSGSRYGTAFTLTISSLQDEDIATYFCLQFTYIPWTFGQGTKLEIK
notes: as for B1
B16: hu2131_v4 (antibody, human IgG1, V domains shown)
VH: QVQLVQSGSELKKPGASVKLSCKASGHTFTSYWMHWVKQAPGQGLEWIGNIYPGSGSINYDEKFQGRATLTVDTSTRTAYMELSSLRSEDSAVYYCLTMTGTSWGRGTLVTVSS
VL: DIQMTQSPSSLSVSVGDRVTITCQASQGTPINLHWFQQKPGKAPKLLISGASNLEDGVPSRFSGSGSGTDFTFTISSLQPEDIATYYCLQFTYIPWTFGQGTKLEIK
notes: as for B1
B17: hu2131_v3 (antibody, human IgG1, V domains shown)
VH: QVQLVQSGSELKKPGASVKLSCKASGHTFTSYWMHWVKQAPGQGLEWIGNIYPGSGSINYDEKFQGRATLTVDTSTRTAYMELSSLRSEDSAVYYCLTMTGTSWGRGTLVTVSS
VL: DVQMTQSPSSLSVSVGDRVTITCQASQGTPINLHWFQQKPGKAPKLLISGASNLEDGVPSRFSGSRYGTDFTFTISSLQPEDIATYFCLQFTYIPWTFGQGTKLEIK
notes: as for B1
B18: hu2131_v16 (antibody, human IgG1, V domains shown)
VH: QVQLVQSGAEVKKPGASVKVSCKASGHTFTSYWMHWVRQAPGQGLEWMGNIYPGSGSINYDEKFQGRVTMTADTSTSTVYMELSSLRSEDTAVYYCLTMTGTSWGRGTLVTVSS
VL: DVQMTQSPSSLSVSVGDRVTMTCQASQGTPINLHWFQQKPGKAPKLLISGASNLEDGVPSRFSGSRYGTAFTLTISSLQDEDIATYFCLQFTYIPWTFGQGTKLEIK
notes: as for B1
B19: hu2131_v7 (antibody, human IgG1, V domains shown)
VH: QVQLVQSGAEVKKPGASVKLSCKASGHTFTSYWMHWVKQAPGQGLEWIGNIYPGSGSINYDEKFQGRATLTVDTSTRTAYMELSSLRSEDTAVYYCLTMTGTSWGRGTLVTVSS
VL: DVQMTQSPSSLSVSVGDRVTMTCQASQGTPINLHWFQQKPGKAPKLLISGASNLEDGVPSRFSGSRYGTAFTLTISSLQPEDIATYFCLQFTYIPWTFGQGTKLEIK
notes: as for B1
B20: Antibody I-4P (antibody, human IgG4 S228P, kappa, V domains shown)
VH: QVQLVQSGAEVKKPGASVKVSCKASGFSFSSGYYMAWVRQAPGQGLEWMGLIGVGSGSLWYAQKFQGRVTMTRDTSTSTVYMELSSLRSEDTAVYYCARHFALSDPFNLWGQGTLVTVSS
VL: EIVLTQSPDFQSVTPKEKVTITCQASESIDSYLLWYQQKPDQSPKLLIKQASTLASGVPSRFSGSGSGTDFTLTINSLEAEDAATYYCQNYYDISSNDFGGGTKVEIKR
notes: also called AbI-4P; J-4P

Molecular target: T1, monomeric soluble human CD200R …
Experiment: BLI (Octet), antibody on anti-human Fc probes, monomeric CD200R in solution, 25 C, 1:1 global fit
Protocol: Humanised variant antibodies combining the different heavy and light variable domains described in Example 6 were produced by transient transfection of HEK293 cells. All antibodies were expressed on a human IgGI isotype with a P238D Fc mutation. The unpurified supernatants were analysed by Protein A-HPLC to determine the antibody concentrations, as a measure of expression yield. […] Binding affinity of humanized variants to human CD200R was assessed by bio-layer interferometry on an Octet R4 instrument. Each antibody was captured directly onto anti-human Fc capture probes (Sartorius 18-5060) for 60 sec followed by baseline setting in assay buffer (DPBS, 0.01% Polysorbate-20). Association of monomeric CD200R protein to immobilised antibodies was measured in 4 different protein concentrations (300, 100, 30 and 10 nM in assay buffer) at 25° C., with an association time of 120s and dissociation of 120s in assay buffer only. A reference probe with no antibody immobilised was used for background subtraction. Kinetic rate constants and binding KDs were calculated using Octet Analysis Studio 12 software. Global curve fitting based on all 4 concentrations using a 1:1 model was performed, from which kon and koff were obtained to calculate KD using the relationship KD=koff/kon.

| Binder | Kd [pM] |
| --- | --- |
| B1 | 3.18 |
| B2 | 4.23 |
| B3 | 2.94 |
| B4 | 183 |
| B5 | 34.4 |
| B6 | 5 |
| B7 | 3.07 |
| B8 | 2.9 |
| B9 | 3.84 |
| B10 | 2.45 |
| B11 | 4.14 |
| B12 | 4.43 |
| B13 | 3.18 |
| B14 | 3.96 |
| B15 | 3.63 |
| B16 | 2.74 |
| B17 | 3.88 |
| B18 | 1.03 |
| B19 | 3.06 |
| B20 | 2160 |
